According to publication PMC3248148:

Target: human p23 co-chaperone (human) (UniProt Q15185)
Experiment: SEC; HiPrep Sephacryl S-200; each protein alone; 50mM Hepes, 150mM NaCl, 50mM KCl, 10mM MgCl2, 1mM DTT, pH 7.5; molecular weight interpolated from standards

stoichiometry N: 2
Substance: human p23 co-chaperone (from UniProt Q15185 1-160) (natural protein)
